Here are results for 56 variants from paper PMC10244618.

The labels stand for the following.
B1: NF2 (merlin) isoform 7, human, full length (507 aa, lacks exons 2-3 = isoform-1 residues 39-121; exon-16 C-terminus), P35240-4 (parent)
chain: MAGAIASRMSFSSLKRKQPKTFTVRIVTMDAEMEFNCEVKKQILDEKIYCPPEASVLLASYAVQAKYGDYDPSVHKRGFLAQEELLPKRVINLYQMTPEMWEERITAWYAEHRGRARDEAEMEYLKIAQDLEMYGVNYFAIRNKKGTELLLGVDALGLHIYDPENRLTPKISFPWNEIRNISYSDKEFTIKPLDKKIDVFKFNSSKLRVNKLILQLCIGNHDLFMRRRKADSLEVQQMKAQAREEKARKQMERQRLAREKQMREEAERTRDELERRLLQMKEEATMANEALMRSEETADLLAEKAQITEEEAKLLAQKAAEAEQEMQRIKATAIRTEEEKRLMEQKVLEAEVLALKMAEESERRAKEADQLKQDLQEAREAERRAKQKLLEIATKPTYPPMNPIPAPLPPDIPSFNLIGDSLSFDFKDTDMKRLSMEIEKEKVEYMEKSKHLQEQLNELKTEIEALKLKERETALDILHNENSDRGGSSKHNTIKKPQAQGRRPICI

Values joined by “and” are separate entries in the source; they are usually repeats but may differ in a detail not shown here. Equal entries are not always repeated.

In the first experiment the parent is B1. The experiment can be described thus: reverse yeast two-hybrid deep mutational scan (rY2H-seq): NF2 isoform 7 mutant library as bait mated with wild-type prey strains; selection on medium lacking adenine for non-interacting pairs; NextSeq paired-end sequencing; enrichment vs …. The note with it: with EMILIN1 (elastin microfibril interfacer 1), Q9Y6C2; yeast diploids after mating (RBait_S3 x RPrey_S3), 30 °C, selection for reporter genes on NB agar; human tyrosine kinase ABL2 co-expressed as the active kinase …; HIGHER = WEAKER BINDING (the opposite of display enrichments): higher = stronger loss of interaction: reverse Y2H selects yeast in which bait and prey do NOT interact (growth without adenine), so a …; hits-only table; scale: rY2H score; numbering: uniprot, sequence starts at 1.
For the variant A350E, the enrichment amounted to 5.83.
Still for that read-out and setting: the figure for A406S is 14.3.
Still for that read-out and setting: the figure for A406I is 3.97; for K340L it is 1.95 and 2.03; for L150A it is 2.56.
The same measure, in the same setting: as for A247K, the figure is 4.58.
Turning to A365E, the enrichment amounted to 4.87.
On the same count and under the same terms, as for A266K, the figure is 9.16; as for A319L, 2.38 and 3.16; as for K313T, 6.
The same measure, in the same setting: as for Y398E, the figure is 15.7; as for Y398F, 1.38 and 1.78.
Turning to Y398L, the enrichment is 2.45.
On the same count and under the same terms, as for P410L, the figure is 5.11 and 2.8.
On the same count and under the same terms, the figure for D369K is 2.69 and 1.81.
On the same count and under the same terms, as for E111A, the figure is 4.1.
Regarding E325A, the enrichment was 2.68.
The same measure, in the same setting: the figure for E325T is 6.21.
On the same count and under the same terms, the figure for E323L is 2.75; for E323G it is 1.92.
Still for that read-out and setting: the figure for E323A is 1.45; for P413L it is 2.88.
E282L: the enrichment stood at 3.15.
The same measure, in the same setting: the figure for L300K is 8.53; for L300R it is 3.24.
Still for that read-out and setting: the figure for L300C is 2.3; for K229L it is 1.52; for P174R it is 4.14.
For the variant S73L, the enrichment was 1.58 and 3.38.
On the same count and under the same terms, as for S73K, the figure is 2; as for T269E, 4.01; as for A290L, 38.6.
On the same count and under the same terms, as for L371E, the figure is 3.71.
L371K: the enrichment came out at 2.49.
Still for that read-out and setting: as for L371A, the figure is 2.9 and 1.56; as for I412A, 3.34.
Same read-out and setting: the figure for E337A is 1.89.
The same measure, in the same setting: as for A381E, the figure is 1.42; as for A381T, 1.45; as for A381M, 5.46.
Turning to A381K, the enrichment was found to be 10.4.
As to A381V, the enrichment worked out at 1.43.
Still for that read-out and setting: the figure for A381L is 1.87.
The same measure, in the same setting: the figure for L355E is 1.61.
Same read-out and setting: the figure for T332S is 2.08; for T332E it is 4.23 and 3.34.
Consider T332A, for which the enrichment was 4.79.

Still in this experiment, the particulars now being: with EMILIN1 (elastin microfibril interfacer 1), Q9Y6C2; yeast diploids after mating (RBait_S3 x RPrey_S3), 30 °C, selection for reporter genes on NB agar; human ABL2 co-expressed as the kinase-dead K35M mutant …; HIGHER = WEAKER BINDING (the opposite of display enrichments): higher = stronger loss of interaction: reverse Y2H selects yeast in which bait and prey do NOT interact (growth without adenine), so a …; hits-only table; scale: rY2H score; numbering: uniprot, sequence starts at 1.
In the case of E472R, the enrichment was 2.84 and 2.55.
Same read-out and setting: as for R384A, the figure is 2.36; as for L390W, 1.53.
Consider P400A, for which the enrichment was 2.14.
The same measure, in the same setting: the figure for A406S is 7.48 and 4.82; for A406I it is 8.86; for H479E it is 3.67.
Take A365E: the enrichment was 2.64.
On to Y398E, for which the enrichment came to 8.39.
On the same count and under the same terms, the figure for Y398F is 1.39 and 2; for Y398L it is 1.89; for Y398A it is 1.36.
The same measure, in the same setting: the figure for P410L is 3.26 and 3.02; for D411K it is 2.21.
Same read-out and setting: as for P413L, the figure is 1.88; as for L371K, 2.05.
With I412A, the enrichment amounted to 2.67.
Still for that read-out and setting: the figure for I412L is 2.06; for A381K it is 4.94.
Same read-out and setting: the figure for L355K is 3.38.

Staying with this experiment, now noted: with NF2 C-terminal domain (wild type; homomeric NF2-NF2 interaction), P35240; yeast diploids after mating (RBait_S3 x RPrey_S3), 30 °C, selection for reporter genes on NB agar; human ABL2 co-expressed as the kinase-dead K35M mutant …; HIGHER = WEAKER BINDING (the opposite of display enrichments): higher = stronger loss of interaction: reverse Y2H selects yeast in which bait and prey do NOT interact (growth without adenine), so a …; hits-only table; partner unresolved; scale: rY2H score; numbering: uniprot, sequence starts at 1.
With R384A, the enrichment worked out at 2.38.
Consider A365E, for which the enrichment turned out to be 4.53.
Still for that read-out and setting: the figure for K313T is 6.36 and 7.06; for Y398E it is 3.87 and 6.52; for P410L it is 2.14 and 2.85.
Still for that read-out and setting: as for D369K, the figure is 2.61.
Consider E323L, for which the enrichment amounted to 3.82.
Still for that read-out and setting: the figure for E323A is 1.8; for L300C it is 2.18.
The same measure, in the same setting: the figure for P174R is 4.82.
Still for that read-out and setting: as for S73L, the figure is 3.01; as for T269E, 3.61; as for L371A, 2.88.
In the case of A381T, the enrichment was found to be 1.6.
The same measure, in the same setting: the figure for L355E is 1.76.
Same read-out and setting: the figure for T332A is 2.4.

Still in this experiment, the particulars now being: with KDM1A (lysine-specific histone demethylase 1A; the table's label AOF2 is a gene synonym of KDM1A), O60341; yeast diploids after mating (RBait_S3 x RPrey_S3), 30 °C, selection for reporter genes on NB agar; human ABL2 co-expressed as the kinase-dead K35M mutant …; HIGHER = WEAKER BINDING (the opposite of display enrichments): higher = stronger loss of interaction: reverse Y2H selects yeast in which bait and prey do NOT interact (growth without adenine), so a …; hits-only table; scale: rY2H score; numbering: uniprot, sequence starts at 1.
On to A406S, for which the enrichment was 11.8.
With A406I, the enrichment is 6.43.
Same read-out and setting: the figure for K340L is 3.29; for A365E it is 11.9 and 4.42.
With A319L, the enrichment was determined as 4.6.
The same measure, in the same setting: as for K313T, the figure is 11.8 and 11.3; as for Y398F, 1.87; as for P410L, 5.35 and 7.09.
As to D369K, the enrichment worked out at 2.15.
Same read-out and setting: as for E325A, the figure is 3.73; as for E325T, 4.73.
The same measure, in the same setting: as for E323A, the figure is 1.84 and 3.01.
Still for that read-out and setting: the figure for T332E is 7.44; for T332A it is 1.86 and 5.52.

The same experiment, now with this note: with KDM1A (lysine-specific histone demethylase 1A; the table's label AOF2 is a gene synonym of KDM1A), O60341; yeast diploids after mating (RBait_S3 x RPrey_S3), 30 °C, selection for reporter genes on NB agar; human tyrosine kinase ABL2 co-expressed as the active kinase …; HIGHER = WEAKER BINDING (the opposite of display enrichments): higher = stronger loss of interaction: reverse Y2H selects yeast in which bait and prey do NOT interact (growth without adenine), so a …; hits-only table; scale: rY2H score; numbering: uniprot, sequence starts at 1.
On to A406S, for which the enrichment stood at 14.
The same measure, in the same setting: as for A266K, the figure is 2.16.
Same read-out and setting: the figure for Y398F is 2.06.
With Y398A, the enrichment worked out at 3.19.
Still for that read-out and setting: as for P410L, the figure is 6.37 and 2.41.
Still for that read-out and setting: as for E111A, the figure is 1.51.
E323L: the enrichment was 1.55.
Same read-out and setting: as for A381K, the figure is 6.12; as for T332A, 2.16.

The experiment is the same for the next values; noted with them: with PIK3R3 (phosphatidylinositol 3-kinase regulatory subunit gamma), Q92569; yeast diploids after mating (RBait_S3 x RPrey_S3), 30 °C, selection for reporter genes on NB agar; human tyrosine kinase ABL2 co-expressed as the active kinase …; HIGHER = WEAKER BINDING (the opposite of display enrichments): higher = stronger loss of interaction: reverse Y2H selects yeast in which bait and prey do NOT interact (growth without adenine), so a …; hits-only table; scale: rY2H score; numbering: uniprot, sequence starts at 1.
Turning to A406I, the enrichment was 5.49.
Same read-out and setting: the figure for K340L is 1.55; for K313T it is 9.73 and 7.27; for Y398L it is 1.96.
P410L: the enrichment was 2.56.
Still for that read-out and setting: as for D369K, the figure is 4.98; as for S73L, 5.98; as for S73K, 3.5 and 2.86.
Consider L371A, for which the enrichment was 1.38.
The same measure, in the same setting: the figure for I412L is 2.03; for A381M it is 8.42; for A381V it is 1.6.
